# Data published in US20080107658A1 (AstraZeneca / MedImmune, published 2008).
# T1: human p75 receptor fusion protein (R&D Systems) (human, UniProt P08138 29-250)
# T1 construct: bought fusion protein; also called p75 neurotrophin receptor
# T1 sequence (looked up): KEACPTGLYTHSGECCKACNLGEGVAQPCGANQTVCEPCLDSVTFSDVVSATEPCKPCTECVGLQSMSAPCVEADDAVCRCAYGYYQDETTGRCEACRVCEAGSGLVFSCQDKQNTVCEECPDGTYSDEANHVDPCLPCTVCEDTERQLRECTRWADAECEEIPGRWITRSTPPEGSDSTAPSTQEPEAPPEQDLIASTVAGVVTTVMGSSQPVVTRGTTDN
# B1: rat nerve growth factor (beta-NGF) (ligand, UniProt P25427 122-241, looked up)
# chain: SSTHPVFHMGEFSVCDSVSVWVGDKTTATDIKGKEVTVLGEVNINNSVFKQYFFETKCRAPNPVESGCRGIDSKHWNSYCTTTHTFVKALTTDDKQAAWRFIRIDTACVCVLSRKAARRG
# notes: mature; also called rat NGF; recombinant rat β-NGF
# Assays:
# [1] = target: B1; test: purified scFv, inhibition of NGF binding to coated TrkA fusion protein (DELFIA)
# Method: Crude scFv samples were prepared from periplasmic lysates of E. coli TG-1 bacteria transfected with selected phage for evaluation in the binding assay. […] Assay plates were washed with PBS/Tween 20, blocked for 2 h using 1% bovine serum albumin (BSA) in PBS, and washed again. […] Samples were transferred in a volume of 100 μl to assay plates and incubated for 60 min at room temperature. […] Briefly, plates were washed and 100 μl streptavidin Eu³⁺ added to each well, diluted 1/1000 in DELFIA assay buffer. Plates were incubated for a further 60 min at room temperature and washed with DELFIA wash buffer, followed by addition of 100 μl DELFIA enhancement solution to each well. Plates were read using a Wallac Victor fluorimetric plate reader (excitation wavelength 314 nm; emission wavelength 615 nm).
# Purified scFv preparations were prepared as described in Example 3 of WO01/66754. Protein concentrations of purified scFv preparations were determined using the BCA method (Pierce).
# [2] = target: T1, human p75 receptor fusion protein (R&D …); test: unlabelled NGF displacing rat 125I-NGF from coated p75 fusion protein
# Method: Human TrkA and p75 receptor fusion proteins (R&D Systems) were diluted in Dulbecco's PBS (Gibco) to final concentrations of 10 nM and 0.6 nM, respectively. Maxisorp Nunc white 96 well microtitre plates (Nalge Nunc) were coated overnight at 4° C. with 100 μl/well of the diluted TrkA or p75 receptor solution. Plates were washed 3 times with PBS Tween 20, and then blocked with 200 μl/well 3% w/v bovine serum albumin (BSA) in PBS. Plates were washed after 1 h incubation at room temperature. Test antibodies were diluted to the desired concentration in assay buffer (0.5% w/v BSA and 0.05% v/v Tween 20 in PBS). […] Duplicate wells were prepared for each concentration of test sample. […] Bound radiolabel was quantified by addition of 100 μl/well Microscint 20 (Perkin Elmer) followed by counting using a Packard TopCount microplate liquid scintillation counter. Data were plotted and analysed using Graphpad Prism software to calculate IC₅₀ values for each experiment, and to derive the corresponding Ki according to the Cheng-Prusoff equation; Ki=IC₅₀/(1+D/Kd) Where: [0257]
# [3] = target: T2, human TrkA receptor extracellular domain fusion protein (R&D Systems) (human, UniProt P04629 33-423); test: unlabelled NGF displacing rat 125I-NGF from coated TrkA fusion protein
# T2 construct: extracellular domain; bought fusion protein; also called TrkA receptor fusion protein
# T2 sequence (P04629 33-423): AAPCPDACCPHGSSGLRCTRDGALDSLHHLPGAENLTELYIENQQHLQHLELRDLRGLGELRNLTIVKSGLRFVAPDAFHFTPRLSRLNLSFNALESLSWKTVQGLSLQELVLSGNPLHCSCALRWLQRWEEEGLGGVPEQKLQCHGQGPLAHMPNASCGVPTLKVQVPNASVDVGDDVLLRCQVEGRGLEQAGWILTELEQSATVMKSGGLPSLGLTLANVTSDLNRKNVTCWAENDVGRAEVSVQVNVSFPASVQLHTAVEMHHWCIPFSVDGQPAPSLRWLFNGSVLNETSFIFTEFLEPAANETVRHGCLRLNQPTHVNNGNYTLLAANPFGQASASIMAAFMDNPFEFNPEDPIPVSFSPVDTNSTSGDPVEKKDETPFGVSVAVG
binding result [1],IC50 [2] [nM],Ki [2] [nM],IC50 [3] [nM],Ki [3] [nM],Binder
binds,–,–,–,–,"1033B2 scFv (scFv, V domains shown, purified scFv) VH: QVQLQQSGAEVKKPGSSVKLSCKASGGTFSSFGISWVRQAPGQGLEWLGRIIPFLGPADYAQKFQGRVTITADESRSTAYMELSSLTSEDTAVYFCARSFYDILTGYYEGVFYYYMDVWGQGTMVTVSS VL: QSVLIQPASVSGSPGQSITISCTGTSSDVGGYNYVSWYQQHPGKAPKLMIYEGSKRPSGVSNRFSGSKSGNTASLTISGLQAEDEADYYCSSYTTRSTRVFGGGTKLTVL"
binds,–,–,–,–,"1057F11 scFv (scFv, V domains shown, purified scFv) VH: EVQLVETGGGVVQPGTSLRLSCAASGFTFSSHGMHWVRQAPGQGLEWVAHAWSDGSNKYYADSLKGRFTISRDNSRNTLYLQMNSLRAEDTAVYYCARDGQQLANYAMDVWGRGTTVTVSS VL: DIQMTQSPSFLSASVGDRVTITCRASQGINSYLAWYQQIPGKAPNLLIYAASTLQSGVPSRFSGSGSGTEFTLTISSLQPEDFATYYCQQLNTYPFTFGPGTKVEIK"
–,0.783,0.71,1.3,1.2,B1
